The target of this test is HLA-A2 molecules immunoaffinity-purified from Jesthom cells, with added human β2-microglobulin (human (endogenous in Jesthom) | human).

By Kd is commonly meant the equilibrium constant for the complex coming apart. A lower Kd goes with tighter binding. As to HBV core 18-27, synthetic peptide, the Kd turned out to be 0.04 µM.
